Reference: paper PMC10071783 (Journal of Nuclear Medicine, 2023)
Read-outs that look alike come from different tables or passages of the source.

Assays:
[1] = Biodistribution in mice bearing subcutaneous H69 tumor xenografts; assay type: in vivo; details: female, NCI Athymic NCr-nu/nu, mouse, 37 kBq, total radioactivity; for tissue uptake at 4 h: 4 h after injection, read-out: kidney percentage injected activity per gram of tissue; for tissue uptake at 2 h: 2 h after injection; for tissue uptake at 2 h / tissue uptake at 24 h: H69 xenograft mice, n = 3, read-out: tumor uptake, percentage injected activity per gram of tissue; for tissue uptake at 24 h: 24 h after injection
Method: All procedures and animal studies followed a protocol approved by the National Institutes of Health Institutional Animal Care and Use Committee (protocol ROB104). Female athymic homozygous nude mice (NCI Athymic NCr-nu/nu strain 553; Charles River Laboratories), 8–10 wk old, were subcutaneously engrafted with 8 × 10^6 H69 cells in 200 μL of ice-cold phosphate-buffered saline. Treatment of tumors with radiotracers for biodistribution or therapy studies was performed once palpable tumors developed, approximately 1 mo after inoculation. […] Full experimental details for the biodistribution experiments are reported in the supplemental information.
(C) Corresponding tumor-to-tissue ratios for selected organs with lysine pretreatment. Full 12-organ biodistribution data are reported in Supplemental Figures 8–11. Error bars represent SD. ***P < 0.005. […]. %IA/g = percentage injected activity per gram of tissue.

[2] = Serum stability in human serum at 37°C by ITLC; assay type: in vitro ADME; details: for remaining at 240 h, 370 kBq/mL: human serum (EMD Millipore), pH 7.4, 370 kBq in 1 mL, up to 10 d, read-out ITLC, read-out: intact conjugate remaining in human serum; for stability in human serum: ITLC
Method: Radiochelate was diluted to 370 kBq in 1 mL of human serum and placed on an Eppendorf ThermoMixer set to 37°C. At fixed intervals, aliquots were removed from the reactions and analyzed by ITLC as described in the supplemental information.

[3] = parameters: method as in PMID 33772332; details: 148 kBq; cited from earlier work
[4] = parameters: method as in PMID 33772332; details: cited from earlier work
H69 lung NET xenografts = assay: Head-to-head therapy study in mice engrafted with H69 cells; assay type: in vivo; details: 46.3 kBq
Method: Animals engrafted with H69 cells were treated with either of the 2 radioconjugates or saline (n = 8–10, each). Local control and survival were the primary outcomes. All groups were tracked for humane endpoints including, but not limited to, tumors larger than 2,000 mm^3 and weight loss greater than 20%.
FIGURE 5. […] (A) Tumor volume measurements over time. Solid lines represent average volume, and dashed lines represent 95% CI. Plots for each dataset are discontinued after first mouse death due to excessive tumor volume. Full tumor volume measurements for study duration for each mouse are reported in Supplemental Figures 15–17. (B) Maximal response to treatment (tumor volume growth percentage) of individual mice. Nonresponding mice are represented as full tumor growth (2,000% increase). (C) Mouse survival over time. Endpoint was defined as tumor volume > 2,000 mm^3 or weight loss over 20% of starting weight. (D) Average mouse body weights over time for each treatment group. Error bars represent SD. ***P < 0.005. *P < 0.05.

[5] = Dose-finding study in mice bearing H69 tumor xenografts; assay type: in vivo; details: D-lysine pretreatment
Excerpt: The promising biodistribution profile of ^225Ac-MACROPATATE led us to investigate its therapeutic efficacy. […] All mice in the 148-kBq treatment group (10/10) and 1 of 3 mice in the 92.3-kBq group were euthanized within 10 d of treatment because of substantial weight loss (>20%).

[6] = 8 d; cited from earlier work
Method: DOTA and its derivatives are used to chelate ^225Ac and many of the previously mentioned radionuclides. However, to chelate ^225Ac with DOTA to yield high-specific-activity radioconjugates, temperatures above 70°C are typically required. Even if these temperatures are used, the resulting complex’s thermodynamic stability ([19]) and labeling kinetics are suboptimal ([20]).

| SMILES | tissue uptake at 4 h ([1]; kidney, after D-lysine administration (35 mg/mouse)) [%ID/g] | tissue uptake at 4 h ([1]; kidney, without D-lysine) [%ID/g] | tissue uptake at 2 h ([1]; tumor) [%ID/g] | tissue uptake at 24 h ([1]; tumor) [%ID/g] | remaining at 240 h, 370 kBq/mL [2] [%] | stability in human serum [2] | tolerability in mice [3] | intact 225Ac-DOTATATE after 10 d [4] [%] | duration of initial reduction in tumor volume after treatment (H69 lung NET xenografts) | mice whose tumors subsequently relapsed (H69 lung NET xenografts) | median survival (H69 lung NET xenografts; H69 xenograft mice, n = 8-10, vehicle 26 d, log rank P = 0.0006) [days] | tissue uptake at 2 h ([1]; in vivo) [%ID/g] | tissue uptake at 4 h ([1]; in vivo, after D-lysine administration (35 mg/mouse)) [%ID/g] | tissue uptake at 4 h ([1]; in vivo, without D-lysine) [%ID/g] | tissue uptake at 24 h ([1]; in vivo) [%ID/g] | mice euthanized within 10 d of treatment because of substantial weight loss (>20%) ([5]; 92.3-kBq group) | mice euthanized within 10 d of treatment because of substantial weight loss (>20%) ([5]; 148-kBq treatment group) | stability in C57BL6 mice compared with 225Ac-DOTA [6] | stability in human serum compared with 225Ac-DOTA [6] |
| --- | --- | --- | --- | --- | --- | --- | --- | --- | --- | --- | --- | --- | --- | --- | --- | --- | --- | --- | --- |
| C[C@@H](O)[C@H](NC(=O)[C@@H]1CSSC[C@H](NC(=O)[C@@H](Cc2ccccc2)NC(=O)CN2CCN(CC(=O)O)CCN(CC(=O)O)CCN(CC(=O)O)CC2)C(=O)N[C@@H](Cc2ccc(O)cc2)C(=O)N[C@H](Cc2c[nH]c3ccccc23)C(=O)N[C@@H](CCCCN)C(=O)N[C@@H]([C@@H](C)O)C(=O)N1)C(=O)O [^225Ac-DOTATATE, metal not drawn, reference compound] | 3.1 | 6 | 5 | 2 | 95 | stable to 10 d | well tolerated | 90 |  |  |  |  |  |  |  |  |  |  |  |
| C[C@@H](O)[C@H](NC(=O)[C@@H]1CSSC[C@H](NC(=O)[C@@H](Cc2ccccc2)NC(=S)Nc2cc(CN3CCOCCOCCN(Cc4cccc(C(=O)O)n4)CCOCCOCC3)nc(C(=O)O)c2)C(=O)N[C@@H](Cc2ccc(O)cc2)C(=O)N[C@H](Cc2c[nH]c3ccccc23)C(=O)N[C@@H](CCCCN)C(=O)N[C@@H]([C@@H](C)O)C(=O)N1)C(=O)O [^225Ac-MACROPATATE, metal not drawn] |  |  |  |  | 98 | stable to 10 d |  |  | approximately 3 wk | 7 of 8 | 55 | 9 | 5.2 | 11.5 | 4 | 1 of 3 | 10/10 |  |  |
| O=C([O-])c1cccc(CN2CCOCCOCCN(Cc3cccc(C(=O)[O-])n3)CCOCCOCC2)n1.[225Ac+3] [^225Ac-MACROPA] |  |  |  |  |  |  |  |  |  |  |  |  |  |  |  |  |  | comparable stability | comparable stability |
